Patent publication US12135332B2, “Mutant human estrogen receptor-α and methods of use thereof” (Case Western Reserve University, priority 2018, dated 2024)

Target: ERE-DNA
Test: Fluorescence anisotropy DNA-binding assay
Conditions: 6-FAM-labeled ERE-DNA 20 nM, E2-bound hERα^CDE; read-out: DNA-binding affinity Kd
From the text: FIGS. 8(a)-(e) are graphs relating to the purification and characterization of recombinant hERα. […] FIGS. 8(b) and (c) show the purification of hERα^CDE, specifically size exclusion chromatography of hERα^CDE in the absence (b) or presence (c) of ERE-DNA. Shown are the absorbance at 260 nm and 280 nm of hERα^CDE in the presence of estradiol and a coactivator TIF2 peptide. […] Data of 2.8-μM hERα^CDE in the presence of E2 were used as a saturation level and free 20-nM DNA data as a baseline. […] The binding of the hERα to a coactivator TIF2 peptide (sequence […]) (SEQ ID NO: 2) in the presence of E2 and ERE-DNA was measured by surface plasmon resonance (SPR). […]
To further assess the impact of this substitution on the receptor's ability to bind ERE-DNA, a biochemical DNA-binding assay was performed by detecting fluorescence anisotropy of 6-carboxyfluorescein-labeled ERE-DNA in the presence of increasing concentrations of the E2-bound hERα^CDE. […]
The fluorescence-conjugated double-strand ERE-DNA was prepared by annealing 6-FAM (6-carboxyfluorescein) 5′-labeled strands (5′-[…]-3′ (SEQ ID NO: 44) and 5′-[…]-3′ (SEQ ID NO: 45); IDT, Inc) in a buffer containing 10 mM CHES (pH 9.5), 50 mM KCl, 50 mM NaCl, 4 mM MgCl2, 50 mM arginine, 50 mM glutamic acid, 5 mM TCEP, 5% glycerol with 10 μM ZnCl2, and 10 μM E2. […]

Kd: 9.2 nM
B1: WT: recombinant wild-type human ERα segment with DBD and LBD, residues E181-P552 (protein)
chain: ETRYCAVCNDYASGYHYGVWSCEGCKAFFKRSIQGHNDYMCPATNQCTIDKNRRKSCQACRLRKCYEVGMMKGGIRKDRRGGRMLKHKRQRDDGEGRGEVGSAGDMRAANLWPSPLMIKRSKKNSLALSLTADQMVSALLDAEPPILYSEYDPTRPFSEASMMGLLTNLADRELVHMINWAKRVPGFVDLTLHDQVHLLECAWLEILMIGLVWRSMEHPGKLLFAPNLLLDRNQGKCVEGMVEIFDMLLATSSRFRMMNLQGEEFVCLKSIILLNSGVYTFLSSTLKSLEEKDHIHRVLDKITDTLIHLMAKAGLTLQQQHQRLAQLLLILSHIRHMSNKGMEHLYSMKCKNVVPLYDLLLEMLDAHRLHAP
